The experiment concerns the target recombinant bovine NX-1α protein (btNX-1α), ectodomain L1-L6 his6 (bovine, UniProt Q28146 31-1454). Put plainly: co-IP.

Chain of recombinant bovine NX-1α protein (btNX-1α), ectodomain L1-L6 his6 (Q28146 31-1454): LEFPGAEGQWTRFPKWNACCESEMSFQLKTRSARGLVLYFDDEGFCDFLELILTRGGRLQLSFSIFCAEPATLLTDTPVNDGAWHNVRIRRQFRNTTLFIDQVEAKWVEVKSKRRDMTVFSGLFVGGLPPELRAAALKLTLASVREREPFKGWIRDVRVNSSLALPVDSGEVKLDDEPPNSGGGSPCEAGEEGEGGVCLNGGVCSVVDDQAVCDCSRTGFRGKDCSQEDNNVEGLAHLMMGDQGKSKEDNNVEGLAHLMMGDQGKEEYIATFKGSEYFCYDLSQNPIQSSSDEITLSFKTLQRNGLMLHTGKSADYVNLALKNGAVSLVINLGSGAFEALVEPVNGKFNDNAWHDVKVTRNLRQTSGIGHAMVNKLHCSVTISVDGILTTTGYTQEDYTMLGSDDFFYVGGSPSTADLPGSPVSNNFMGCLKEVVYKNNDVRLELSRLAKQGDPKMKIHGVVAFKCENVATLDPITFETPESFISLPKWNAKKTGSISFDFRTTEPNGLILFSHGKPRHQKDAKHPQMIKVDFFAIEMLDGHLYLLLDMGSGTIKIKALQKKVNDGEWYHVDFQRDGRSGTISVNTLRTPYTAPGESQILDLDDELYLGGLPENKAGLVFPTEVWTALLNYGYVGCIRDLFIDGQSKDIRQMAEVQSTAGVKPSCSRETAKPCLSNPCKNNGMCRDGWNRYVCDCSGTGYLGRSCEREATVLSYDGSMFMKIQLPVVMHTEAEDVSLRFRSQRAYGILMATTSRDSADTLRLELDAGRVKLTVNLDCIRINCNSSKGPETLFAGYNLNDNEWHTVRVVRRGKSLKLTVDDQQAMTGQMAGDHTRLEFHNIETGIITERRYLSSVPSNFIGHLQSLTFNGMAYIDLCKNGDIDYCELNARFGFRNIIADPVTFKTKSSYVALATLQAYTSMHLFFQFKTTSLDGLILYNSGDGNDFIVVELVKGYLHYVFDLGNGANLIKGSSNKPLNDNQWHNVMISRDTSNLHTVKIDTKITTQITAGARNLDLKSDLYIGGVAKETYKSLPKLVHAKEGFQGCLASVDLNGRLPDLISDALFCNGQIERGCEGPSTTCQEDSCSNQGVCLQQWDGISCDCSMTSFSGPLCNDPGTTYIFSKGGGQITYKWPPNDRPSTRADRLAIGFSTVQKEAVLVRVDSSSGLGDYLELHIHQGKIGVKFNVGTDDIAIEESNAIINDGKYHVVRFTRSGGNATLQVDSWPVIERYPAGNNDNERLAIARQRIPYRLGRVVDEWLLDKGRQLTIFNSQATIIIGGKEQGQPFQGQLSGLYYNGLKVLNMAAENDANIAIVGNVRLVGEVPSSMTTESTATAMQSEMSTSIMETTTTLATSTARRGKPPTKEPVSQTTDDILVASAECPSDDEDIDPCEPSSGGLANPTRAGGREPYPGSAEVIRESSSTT

B1: HA-tagged α2δ-3 (mouse) (natural protein, UniProt Q9Z1L5 34-1091, looked up)
chain: EQQIPLSVVKLWASAFGGEIKSIAAKYSGSQLLQKKYKEYEKDVAIEEIDGLQLVKKLAKIMEEMFHKKSEAVRRLVEAAEEAHLKHEFDADLQYEYFNAVLINERDKDGNFLELGKEFILAPNDHFNNLPVNISLSDVQVPTNMYNKDPAIVNGVYWSESLNKVFVDNFDRDPSLIWQYFGSAKGFFRQYPGIKWEPDENGVIAFDCRNRKWYIQAATSPKDVVILVDVSGSMKGLRLTIAKQTVSSILDTLGDDDFFNIITYNEELHYVEPCLNGTLVQADRTNKEHFREHLDKLFAKGIGMLDIALNEAFNILSDFNHTGQGSICSQAIMLITDGAVDTYDTIFAKYNWPDRKVRIFTYLIGREAAFADNLKWMACANKGFFTQISTLADVQENVMEYLHVLSRPKVIDQEHDVVWTEAYIDSTLPQAQKLADDQGLVLMTTVAMPVFSKQNETRSKGILLGVVGTDVPVKELLKTIPKYKLGIHGYAFAITNNGYILTHPELRPLYEEGKKRRKPNYSSVDLSEVEWEDRDDVLRNAMVNRKTGKFSMEVKKTVDKGKRVLVMTNDYYYTDIKGTPFSLGVALSRGHGKYFFRGNVTIEEGLHDLEHPDVSLADEWSYCNTDLHPEHRHLSQLEAIKLYLKGKEPLLQCDKELIQEVLFDAVVSAPIEAYWTSLALNKSENSDKGVEVAFLGTRTGLSRINLFVGAEQLTNQDFLKAGDKENIFNADHFPLWYRRAAEQIAGSFVYSIPFSTGTVNKSNVVTASTSIQLLDERKSPVVAAVGIQMKLEFFQRKFWTASRQCASLDGKCSISCDDETVNCYLIDNNGFILVSEDYTQTGDFFGEVEGAVMNKLLTMGSFKRITLYDYQAMCRANKESSDSAHGLLDPYKAFLSAAKWIMTELVLFLVEFNLCSWWHSDMTAKAQKLKQTLEPCDTEYPAFVSERTIKETTGNIACEDCSKSFVIQQIPSSNLFMVVVDSSCLCESVAPITMAPIEIRYNESLKCERLKAQKIRRRPESCHGFHPEENARECGGASSLQAQAALLLLPLVSSLFSR
In general, Kd refers to the constant that tells how readily two partners part at equilibrium. Regarding B1, the Kd was roughly 40 nM.

The values are drawn from article PMC5548138 (Neuron, 2017).
